{"source": "patent US20200207850A1", "about": "(MacroGenics, published 2020)", "binders": {"B1": {"name": "B7-H3 mAb 1/CD3 mAb 2/CD8 mAb 1 Tri-Specific Binding Molecule (other)", "chain 1": "DIQMTQSPSSLSASVGDRVTITCRASQDISNYLNWYQQKPGKAPKLLIYYTSRLHSGVPSRFSGSGSGTDFTLTISSLQPEDIATYYCQQGNTLPPTFGGGTKLEIKGGGSGGGGEVQLVESGGGLVQPGGSLRLSCAASGFTFSTYAMNWVRQAPGKGLEWVGRIRSKYNNYATYYADSVKDRFTISRDDSKNSLYLQMNSLKTEDTAVYYCVRHGNFGNSYVSWFAYWGQGTLVTVSSGGCGGGEVAALEKEVAALEKEVAALEKEVAALEKGGGDKTHTCPPCPAPEAAGGPSVFLFPPKPKDTLMISRTPEVTCVVVDVSHEDPEVKFNWYVDGVEVHNAKTKPREEQYNSTYRVVSVLTVLHQDWLNGKEYKCKVSNKALPAPIEKTISKAKGQPREPQVYTLPPSREEMTKNQVSLWCLVKGFYPSDIAVEWESNGQPENNYKTTPPVLDSDGSFFLYSKLTVDKSRWQQGNVFSCSVMHEALHNHYTQKSLSLSPGK", "chain 2": "QAVVTQEPSLTVSPGGTVTLTCRSSTGAVTTSNYANWVQQKPGQAPRGLIGGTNKRAPWTPARFSGSLLGGKAALTITGAQAEDEADYYCALWYSNLWVFGGGTKLTVLGGGGSGGGGQVQLVQSGAEVKKPGASVKVSCKASGYTFTSYWMQWVRQAPGQGLEWMGTIYPGDGDTRYTQKFKGRVTITADKSTSTAYMELSSLRSEDTAVYYCARRGIPRLWYFDVWGQGTTVTVSSGGCGGGKVAALKEKVAALKEKVAALKEKVAALKE", "heavy": "EVQLQQSGAELVKPGASVKLSCTASGFNIKDTYIHFVRQRPEQGLEWIGRIDPANDNTLYASKFQGKATITADTSSNTAYMHLCSLTSGDTAVYYCGRGYGYYVFDHWGQGTTLTVSSASTKGPSVFPLAPSSKSTSGGTAALGCLVKDYFPEPVTVSWNSGALTSGVHTFPAVLQSSGLYSLSSVVTVPSSSLGTQTYICNVNHKPSNTKVDKRVEPKSCDKTHTCPPCPAPEAAGGPSVFLFPPKPKDTLMISRTPEVTCVVVDVSHEDPEVKFNWYVDGVEVHNAKTKPREEQYNSTYRVVSVLTVLHQDWLNGKEYKCKVSNKALPAPIEKTISKAKGQPREPQVYTLPPSREEMTKNQVSLSCAVKGFYPSDIAVEWESNGQPENNYKTTPPVLDSDGSFFLVSKLTVDKSRWQQGNVFSCSVMHEALHNRYTQKSLSLSPGK", "light": "DVQINQSPSFLAASPGETITINCRTSRSISQYLAWYQEKPGKTNKLLIYSGSTLQSGIPSRFSGSGSGTDFTLTISGLEPEDFAMYYCQQHNENPLTFGAGTKLELRRTVAAPSVFIFPPSDEQLKSGTASVVCLLNNFYPREAKVQWKVDNALQSGNSQESVTEQDSKDSTYSLSSTLTLSKADYEKHKVYACEVTHQGLSSPVTKSFNRGEC", "notes": "Four different polypeptide chains covalently complexed, with Fc Domain"}}, "key": {"[1]": {"molecular_target": "T1, B7-H3 on A498 and JIMT-1 target cells (UniProt Q5ZPR3 29-534, limits assumed)", "T1 sequence (looked up)": "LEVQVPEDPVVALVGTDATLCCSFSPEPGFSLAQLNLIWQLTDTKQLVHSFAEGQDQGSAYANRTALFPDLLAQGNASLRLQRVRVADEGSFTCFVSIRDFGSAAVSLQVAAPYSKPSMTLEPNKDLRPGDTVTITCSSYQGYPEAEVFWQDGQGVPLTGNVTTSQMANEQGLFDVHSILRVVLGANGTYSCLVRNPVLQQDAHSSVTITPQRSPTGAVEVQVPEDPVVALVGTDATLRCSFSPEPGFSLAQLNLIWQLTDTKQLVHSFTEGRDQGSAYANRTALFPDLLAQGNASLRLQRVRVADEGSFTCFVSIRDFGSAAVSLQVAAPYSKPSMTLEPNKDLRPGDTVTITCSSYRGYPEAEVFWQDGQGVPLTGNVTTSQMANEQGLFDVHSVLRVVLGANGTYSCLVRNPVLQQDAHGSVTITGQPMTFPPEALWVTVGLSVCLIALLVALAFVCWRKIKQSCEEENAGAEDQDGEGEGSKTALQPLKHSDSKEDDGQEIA", "assay": "cell-based or functional assay"}, "[2]": {"molecular_target": "T1, B7-H3 on A498 and JIMT-1 target cells", "assay": "cell-based or functional assay", "remark": "listed apart in the source"}, "[3]": {"molecular_target": "T2, CD8 on human T cells (PBMC) (human, UniProt P01732 22-235)", "T2 construct": "whole, on cells; The CD8+ (CD5+ CD4-) cells also carry CD3; also called CD5+ CD4- gated PBMC; CD8+ T cells", "T2 sequence (P01732 22-235)": "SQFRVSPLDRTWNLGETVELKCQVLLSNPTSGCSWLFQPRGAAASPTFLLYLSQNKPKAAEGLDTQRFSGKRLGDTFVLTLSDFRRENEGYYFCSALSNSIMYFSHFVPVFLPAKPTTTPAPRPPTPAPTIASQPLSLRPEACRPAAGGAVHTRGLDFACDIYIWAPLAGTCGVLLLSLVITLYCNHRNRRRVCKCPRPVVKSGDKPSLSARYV", "assay": "flow cytometry, binding to human CD5+/CD4- cells (bear CD8 and CD3) (MFI)"}, "[4]": {"molecular_target": "T2, CD8 on human T cells (PBMC)", "assay": "flow cytometry on human PBMC, CD5+/CD4- gated cells (bear CD8 and CD3), detection anti-human Fc (MFI)"}, "[5]": {"molecular_target": "T2, CD8 on human T cells (PBMC)", "assay": "flow cytometry on human PBMC, CD5+/CD4- gated cells (bear CD8 and CD3), detection PE anti-human Fc (MFI)", "experimental": "50 μL (4×10⁶ cells/mL) of well-mixed cells in FACS buffer containing 0.01% sodium azide were then added into corresponding wells and mixed thoroughly using a pipette. The plate was incubated in the dark for about 45 minutes at 2-8° C. At the end of the incubation, the cells were washed twice by adding 300 μL of FACS buffer to each well, centrifuging the plate at 1,200 rpm for 5 minutes, and discarding the supernatant. The cell pellets were re-suspended in 100 μL mixture of PE-conjugated goat anti-Human Fcγ 1:500 diluted, CD5-APC and CD4-PerCP5.5 in FACS buffer containing 0.01% sodium azide, and incubated in the dark for about 45 minutes at 2-8° C. At the end of the incubation, the cells were washed, re-suspended with FACS buffer, and analyzed with a BD Caliber flow cytometer. Cells were gated to CD5⁺ CD4⁺ (FIG. 9A) or CD5⁺ CD4⁻ (FIG. 9B)."}}}
{"binder": "B1", "values": [{"measurement": "LDH EC50 (pM), A498 cells", "setting": "[1]", "value": 4, "unit": "pM"}, {"measurement": "LDH EC50 (pM), JIMT-1 cells", "setting": "[1]", "value": 0.4, "unit": "pM"}, {"measurement": "Luciferase EC50 (pM), JIMT-1 cells", "setting": "[1]", "value": 0.6, "unit": "pM"}, {"measurement": "EC50 (nM) of killing, CD4+ effector cells, JIMT1-luc target cells, E:T 5:1", "setting": "[2]", "value": 0.0721, "unit": "nM"}, {"measurement": "EC50 (nM) of killing, CD8+ effector cells, JIMT1-luc target cells, E:T 5:1", "setting": "[2]", "value": 0.0054, "unit": "nM"}, {"measurement": "EC50 (nM) of killing, PanT effector cells, JIMT1-luc target cells, E:T 5:1", "setting": "[2]", "value": 0.0082, "unit": "nM"}, {"measurement": "EC50 (read off the curve)", "setting": "[3]", "value": "~2", "unit": "nM"}, {"measurement": "EC50 (read off the curve)", "setting": "[4]", "value": "~2", "unit": "nM"}, {"measurement": "EC50 (read off the curve)", "setting": "[5]", "value": "~2", "unit": "nM"}]}
